The supplement of paper PMC10126150
± gives the standard deviation of the averaged measurements.
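Further: ATP exposure 15 min at 22 °C before imaging.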

Each sequence was assayed on ATP (assay: switch fluorescence ratio, 500 uM ATP over buffer (Cy3 cluster intensity, sum of 5 cycles each) (fold (ratio)); higher = stronger signal-on switching upon ATP binding; sequences stand for … in TCGTCGGCAGCGTCAGATGTGTATAAGAGACAGTTTTTTTTTTTTTTTTTTTTTTTTT…TC). Details: aptamer strand: ATP DNA aptamer (quencher-CACCTGGGGGAGTATTGCGGAGGAAGG + anchor), 100 nM annealed; ATP concentration: 500 uM.
Summary of the method: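 Switching-strand clusters labelled with Cy3 on a modified Illumina MiSeq flow-cell were annealed to 100 nM quencher-labelled ATP aptamer, imaged in selection buffer, and re-imaged after 15 min with 500 uM ATP at 22 °C. This was done over five cycles with NaOH stripping and re-annealing in between. The fluorescence ratio is summed target-cycle over summed buffer-cycle Cy3 intensity per cluster, averaged per switch-domain sequence, excluding clusters outside 100-1000 RFU.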
GGGTGTGAGA was tested, and the switch fluorescence ratio was 1.04 ± 0.03. CCACAGCCGG gave a switch fluorescence ratio of 1.23 ± 0.13. TAATCCTAGT gave a switch fluorescence ratio of 0.997 ± 0.036. In the case of GAAGTACAGC, the switch fluorescence ratio is reported as 1.26 ± 0.031. AAGCTCCTTT gave a switch fluorescence ratio of 0.968 ± 0.011. TAATTTATCC showed a switch fluorescence ratio of 1.022 ± 0.0095. For GAAGGTATCC, the switch fluorescence ratio was 1.02 ± 0.037. CGAGGGGGAG was tested, and the switch fluorescence ratio was 1.004 ± 0.0097. GGGGTGTGGC showed a switch fluorescence ratio of 0.977 ± 0.046. In the case of AGTATTCTTA, the switch fluorescence ratio is reported as 0.99324 ± 0.00072. GCGTTGGG gave a switch fluorescence ratio of 1.02 ± 0.029. Work on ATGAGAGGAA yielded a switch fluorescence ratio of 0.981 ± 0.028. CGTAGTAAAT gave a switch fluorescence ratio of 1.062 ± 0.0087. ATGGTATCGT was tested, and the switch fluorescence ratio was 0.986 ± 0.018. With TCGAAATCAC the switch fluorescence ratio was 1.32 ± 0.046. Work on TAGGGTTGTA yielded a switch fluorescence ratio of 0.991 ± 0.04. For AAACGACATT, the switch fluorescence ratio was 1.13 ± 0.13. With CGGGCTACTA the switch fluorescence ratio was 1.05 ± 0.016. ATGGGTTGGA gave a switch fluorescence ratio of 1.008 ± 0.0088. TCGAGCTGAA showed a switch fluorescence ratio of 1.018 ± 0.0016. Work on CTGTGTGGAG yielded a switch fluorescence ratio of 0.991 ± 0.013. With CCTCGATTCA the switch fluorescence ratio was 1.03 ± 0.017. ATAGGTTAGA showed a switch fluorescence ratio of 1.06 ± 0.14. In the case of TGGGGGTTTG, the switch fluorescence ratio is reported as 0.993 ± 0.021. Work on GGGGGACTGC yielded a switch fluorescence ratio of 1.01 ± 0.048. TGAATTGGTC showed a switch fluorescence ratio of 1.06 ± 0.16. Work on GGTTTTCCGT yielded a switch fluorescence ratio of 1.07 ± 0.051. For TGCGTTATCG, the switch fluorescence ratio was 1.025 ± 0.0072. With CGGCCTGGCG the switch fluorescence ratio was 0.969 ± 0.016. GGGGTCTAGT showed a switch fluorescence ratio of 1.01 ± 0.026. TTTAATAGCA was tested, and the switch fluorescence ratio was 1.01 ± 0.025. CTGAGGGGCC gave a switch fluorescence ratio of 0.951 ± 0.071. Sequence ACTTAGCAA has a switch fluorescence ratio of 1.92 ± 0.092. Sequence ACAGGAAGAG has a switch fluorescence ratio of 1.05 ± 0.038. Work on AATGAACTCT yielded a switch fluorescence ratio of 1.02 ± 0.034. Work on CAAAAGGAGT yielded a switch fluorescence ratio of 0.992 ± 0.034. With TCGTATGTTA the switch fluorescence ratio was 0.97 ± 0.014. Work on AAGTGTGGGG yielded a switch fluorescence ratio of 1 ± 0.025. In the case of GCATTTAATG, the switch fluorescence ratio is reported as 1 ± 0.05. Work on CAAATTAGGA yielded a switch fluorescence ratio of 0.9764 ± 0.0073. AAGGTCGCTG showed a switch fluorescence ratio of 0.9861 ± 0.00072. With TGGCATGTGT the switch fluorescence ratio was 0.986 ± 0.033. In the case of GTTTTTTCGA, the switch fluorescence ratio is reported as 1.024 ± 0.0051. Work on GGGGAAGTCT yielded a switch fluorescence ratio of 0.984 ± 0.093. CAAGGGGGG gave a switch fluorescence ratio of 0.977 ± 0.043. For CCTGGGCCCA, the switch fluorescence ratio was 1.09 ± 0.15. TTCCGGGTTG was tested, and the switch fluorescence ratio was 1.34 ± 0.35. In the case of CTGTAGTCGG, the switch fluorescence ratio is reported as 1.02 ± 0.03. With GAACGGGACA the switch fluorescence ratio was 1.18 ± 0.065. In the case of GAAGAACCGG, the switch fluorescence ratio is reported as 0.974 ± 0.022. For ATTATAAAAC, the switch fluorescence ratio was 1.03 ± 0.045. TTGGCTTTGA gave a switch fluorescence ratio of 0.9893 ± 0.0097. ACCAGCAGCC was tested, and the switch fluorescence ratio was 1.21 ± 0.025. TATGAGTGGG showed a switch fluorescence ratio of 0.976 ± 0.018. Sequence TAAAATTGAT has a switch fluorescence ratio of 0.9818 ± 0.0038. TAATTTTATG was tested, and the switch fluorescence ratio was 0.998 ± 0.025. In the case of TTGAATCGCG, the switch fluorescence ratio is reported as 1.0115 ± 0.00023. Work on AGGCTTGGGT yielded a switch fluorescence ratio of 0.982 ± 0.024. For AAGTGCACGG, the switch fluorescence ratio was 1 ± 0.036. For GTTCTGAGGT, the switch fluorescence ratio was 1 ± 0.0014. TTGGGCGTCG was tested, and the switch fluorescence ratio was 0.995 ± 0.047. With GCAGCAGGGG the switch fluorescence ratio was 1.84 ± 0.23. For ATTCTTTGCC, the switch fluorescence ratio was 1.003 ± 0.006. GTGGAAGGTA was tested, and the switch fluorescence ratio was 0.991 ± 0.011. In the case of CGTCTAGTCG, the switch fluorescence ratio is reported as 1 ± 0.025. In the case of GGGTTTCGCG, the switch fluorescence ratio is reported as 1.01 ± 0.023. GAGGTAAAAT was tested, and the switch fluorescence ratio was 0.968 ± 0.016. GGTTGTATTT gave a switch fluorescence ratio of 0.962 ± 0.06. TCTGGCTTTT showed a switch fluorescence ratio of 1.022 ± 0.0092. With GGTGTATAA the switch fluorescence ratio was 0.995 ± 0.032. In the case of GGTCAGTGGT, the switch fluorescence ratio is reported as 1 ± 0.022. GAGGGTATTT was tested, and the switch fluorescence ratio was 0.978 ± 0.03. In the case of GAGGTGCCAG, the switch fluorescence ratio is reported as 0.992 ± 0.031. Work on GGATAGGGGT yielded a switch fluorescence ratio of 1.05 ± 0.062. With CGTTTGTGAT the switch fluorescence ratio was 0.9993 ± 0.0076. For CATTAGCGAT, the switch fluorescence ratio was 1.5 ± 0.091. For AGGTTTAGAC, the switch fluorescence ratio was 1.01 ± 0.021. In the case of GTTTGCGTAT, the switch fluorescence ratio is reported as 1.02 ± 0.048. For CTCCGGCTGG, the switch fluorescence ratio was 1.19 ± 0.14. TGATTTTACG was tested, and the switch fluorescence ratio was 0.983 ± 0.019. In the case of GTATGTATTT, the switch fluorescence ratio is reported as 0.986 ± 0.021. CCGGGTAGTT was tested, and the switch fluorescence ratio was 1.02 ± 0.074. GACTTGAATT was tested, and the switch fluorescence ratio was 0.99 ± 0.034. With AGGCATCTGG the switch fluorescence ratio was 0.994 ± 0.011. CTCGGATGTC showed a switch fluorescence ratio of 0.991 ± 0.022. TAATAATGGA showed a switch fluorescence ratio of 1.01 ± 0.035. For TTTTGCCTTC, the switch fluorescence ratio was 1.09 ± 0.027. CGGACTTTG was tested, and the switch fluorescence ratio was 0.999 ± 0.026. In the case of CCTGCCAAGA, the switch fluorescence ratio is reported as 2 ± 1.4. TTTACGACAC showed a switch fluorescence ratio of 2.02 ± 0.14. AGAGATATGA gave a switch fluorescence ratio of 1.0142 ± 0.00072. Sequence GATAGCCTGT has a switch fluorescence ratio of 1.01 ± 0.027. Sequence TGCATTTCAG has a switch fluorescence ratio of 1 ± 0.025. In the case of ATTGCGTTAT, the switch fluorescence ratio is reported as 1.03 ± 0.018. For TTTTTGGCTC, the switch fluorescence ratio was 1.01 ± 0.019. Work on TTGAAGGTTA yielded a switch fluorescence ratio of 0.99 ± 0.016. Sequence AGGGTTCGGG has a switch fluorescence ratio of 1.01 ± 0.031. GATGAGGTAT was tested, and the switch fluorescence ratio was 0.9899 ± 0.002. Sequence TGTTAAAAAG has a switch fluorescence ratio of 0.991 ± 0.013. In the case of TTTTACGTTG, the switch fluorescence ratio is reported as 0.995 ± 0.01. TATGTCGGCC gave a switch fluorescence ratio of 0.975 ± 0.069. Work on GTGTTGAACG yielded a switch fluorescence ratio of 1.04 ± 0.071. TGGTGTGATG was tested, and the switch fluorescence ratio was 1.007 ± 0.0026. For TTACATTGTT, the switch fluorescence ratio was 1.06 ± 0.11. For TCGGACTTTA, the switch fluorescence ratio was 0.998 ± 0.042. ACCGCTTCTG gave a switch fluorescence ratio of 1.04 ± 0.032. For AAAGTTTTCG, the switch fluorescence ratio was 0.977 ± 0.026. For GGGAATGCTT, the switch fluorescence ratio was 1.016 ± 0.0054. CTGATTTAGC was tested, and the switch fluorescence ratio was 1.05 ± 0.043. For GATAGGGGGC, the switch fluorescence ratio was 1.13 ± 0.28. TTGAGTTGGT gave a switch fluorescence ratio of 0.95 ± 0.025. Sequence TCGTTGTGAG has a switch fluorescence ratio of 1.004 ± 0.0089. In the case of GTTTATGCAG, the switch fluorescence ratio is reported as 0.968 ± 0.017. For TTGCGATGGG, the switch fluorescence ratio was 0.995 ± 0.03. Sequence GGGTTTGAAA has a switch fluorescence ratio of 1.01 ± 0.067. With AGCTATCCCG the switch fluorescence ratio was 0.991 ± 0.046. CCAACAGGCC was tested, and the switch fluorescence ratio was 1.14 ± 0.12. In the case of TGAGTAGGGT, the switch fluorescence ratio is reported as 0.992 ± 0.011. With TGGGGGTCCC the switch fluorescence ratio was 0.991 ± 0.017. For TAGATTTGAT, the switch fluorescence ratio was 0.9664 ± 0.0028. With TGTAGTACTG the switch fluorescence ratio was 1.02 ± 0.043. Sequence ATATTAGGTT has a switch fluorescence ratio of 0.998 ± 0.018. In the case of GCTTCGGGTT, the switch fluorescence ratio is reported as 0.976 ± 0.028. TGAGATTATT was tested, and the switch fluorescence ratio was 1.01 ± 0.038. With TCTAATATAC the switch fluorescence ratio was 1.62 ± 0.028. In the case of CCGGGGTTTG, the switch fluorescence ratio is reported as 0.998 ± 0.019. AAAGGGTTTT gave a switch fluorescence ratio of 1.01 ± 0.022. GGGTTTCGAC gave a switch fluorescence ratio of 1.02 ± 0.013. For CAGTAGTCGA, the switch fluorescence ratio was 1.03 ± 0.014. In the case of TGGAGATAGG, the switch fluorescence ratio is reported as 0.994 ± 0.016. Work on ATTCTGACAC yielded a switch fluorescence ratio of 1.07 ± 0.028. With TCGATGATGG the switch fluorescence ratio was 1.05 ± 0.013. For CGAGAGGGGT, the switch fluorescence ratio was 1.02 ± 0.044. CGTGGTCGTG showed a switch fluorescence ratio of 0.9672 ± 0.00049. With AATTGGGGGC the switch fluorescence ratio was 0.98 ± 0.022. TGATAGGGTT showed a switch fluorescence ratio of 0.985 ± 0.014. Sequence ACTATTGGGG has a switch fluorescence ratio of 0.989 ± 0.011. Sequence TGCGGGGGTA has a switch fluorescence ratio of 0.999 ± 0.019. TAGGGGACAG gave a switch fluorescence ratio of 1.03 ± 0.058. CATATTTTGT was tested, and the switch fluorescence ratio was 1.0216 ± 0.00042. For GGGAATCCGG, the switch fluorescence ratio was 1.02 ± 0.013. Sequence TAAGGCTAGT has a switch fluorescence ratio of 0.969 ± 0.01. AGCATGGTGG was tested, and the switch fluorescence ratio was 1.02 ± 0.046. GTCAGAGGGG gave a switch fluorescence ratio of 0.979 ± 0.028. ACCTGGGGGA gave a switch fluorescence ratio of 1.07 ± 0.11. In the case of CGGGTAATAG, the switch fluorescence ratio is reported as 1.46 ± 0.16. Sequence GTTTTAATTA has a switch fluorescence ratio of 1.01 ± 0.021. GGGCAGGATG showed a switch fluorescence ratio of 1.05 ± 0.039. For TGGGTGATTA, the switch fluorescence ratio was 0.9846 ± 0.005. Sequence ATTAAGGGTT has a switch fluorescence ratio of 1.02 ± 0.025. In the case of TTTGGTTTAC, the switch fluorescence ratio is reported as 1.01 ± 0.019. For ACGAGGTTAA, the switch fluorescence ratio was 1.01 ± 0.018. Sequence GTTACTCTGA has a switch fluorescence ratio of 1.055 ± 0.0083. Sequence TCTCGTAAAT has a switch fluorescence ratio of 1.034 ± 0.01. CCTGATGGGG showed a switch fluorescence ratio of 1.01 ± 0.017. GGGGTTTTGC showed a switch fluorescence ratio of 0.985 ± 0.017. Work on TCCAGCGGGG yielded a switch fluorescence ratio of 1.01 ± 0.047.
